B1: AH receptor-interacting protein (Homo sapiens), O00170 (parent)
chain: MADIIARLREDGIQKRVIQEGRGELPDFQDGTKATFHYRTLHSDDEGTVLDDSRARGKPMELIIGKKFKLPVWETIVCTMREGEIAQFLCDIKHVVLYPLVAKSLRNIAVGKDPLEGQRHCCGVAQMREHSSLGHADLDALQQNPQPLIFHMEMLKVESPGTYQQDPWAMTDEEKAKAVPLIHQEGNRLYREGHVKEAAAKYYDAIACLKNLQMKEQPGSPEWIQLDQQITPLLLNYCQCKLVVEEYYEVLDHCSSILNKYDDNVKAYFKRGKAHAAVWNAQEAQADFAKVLELDPALAPVVSRELRALEARIRQKDEEDKARFRGIFSH
partner: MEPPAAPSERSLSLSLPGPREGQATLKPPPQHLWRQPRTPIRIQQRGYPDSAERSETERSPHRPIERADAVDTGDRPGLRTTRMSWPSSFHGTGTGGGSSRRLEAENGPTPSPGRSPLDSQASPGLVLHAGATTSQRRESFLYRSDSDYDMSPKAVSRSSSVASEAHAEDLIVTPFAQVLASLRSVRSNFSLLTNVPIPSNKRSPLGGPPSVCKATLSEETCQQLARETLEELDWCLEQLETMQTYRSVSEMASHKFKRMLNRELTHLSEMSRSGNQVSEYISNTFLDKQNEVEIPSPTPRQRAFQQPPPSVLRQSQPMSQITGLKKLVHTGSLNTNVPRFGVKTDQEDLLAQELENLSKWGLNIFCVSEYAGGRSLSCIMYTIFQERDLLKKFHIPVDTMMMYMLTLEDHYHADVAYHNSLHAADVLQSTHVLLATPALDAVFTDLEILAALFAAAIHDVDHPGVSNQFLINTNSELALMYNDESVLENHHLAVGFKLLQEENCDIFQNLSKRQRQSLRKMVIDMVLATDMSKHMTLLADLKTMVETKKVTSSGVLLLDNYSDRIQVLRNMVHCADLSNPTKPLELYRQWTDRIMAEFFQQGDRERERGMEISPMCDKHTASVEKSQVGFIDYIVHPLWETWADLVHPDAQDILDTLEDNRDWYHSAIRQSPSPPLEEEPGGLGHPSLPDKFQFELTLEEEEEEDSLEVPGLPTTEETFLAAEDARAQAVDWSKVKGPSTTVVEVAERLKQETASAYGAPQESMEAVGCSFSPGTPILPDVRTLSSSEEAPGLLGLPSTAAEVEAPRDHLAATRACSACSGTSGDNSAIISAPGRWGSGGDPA

The variants in this experiment derive from B1. To be noted: with pde4a_rat Pde4a.
For MADIIARLREDGIQKRVIQEGRGELPDFQDGTKATFHYRTLHSDDEGTVLDDSRARGKPMELIIGKKFKLPVWETIVCTMREGEIAQFLCDIKHVVLYPLVAKSLRNIAVGKDPLEGQRHCCGVAQMREHSSLGHADLDALQQNPQPLIFHMEMLKVESPGTYQQDPWAMTDEEKAKAVPLIHQEGNRLYREGHVKEAAAKYYDAIACLKNLQMKEQPGSPEWIQLDQQITPLLLNYCQCKLVVEEYYEVLDHCSSILNKYDDNVKAYFKWGKAHAAVWNAQEAQADFAKVLELDPALAPVVSRELRALEARIRQKDEEDKARFRGIFSH [R271W], the “effect of a mutation on the interaction” value is “disrupting interaction strength”.
As for MADIIARLREDGIQKRVIQEGRGELPDFQDGTKATFHYRTLHSDDEGTVLDDSRARGKPMELIIGKKFKLPVWETIVCTMREGEIAQFLCDIKHVVLYPLVAKSLRNIAVGKDPLEGQRHCCGVAQMREHSSLGHADLDALQQNPQPLIFHMEMLKVESPGTYQQDPWAMTDEEKAKAVPLIHQEGNRLYREGHVKEAAAKYYDAIACLKNLQMKEQPGSPEWIQLDQQITPLLLNYCQCELVVEEYYEVLDHCSSILNKYDDNVKAYFKRGKAHAAVWNAQEAQADFAKVLELDPALAPVVSRELRALEARIRQKDEEDKARFRGIFSH [K241E], the entry is “disrupting interaction strength”; as for MADIIARLREDGIQKRVIQEGRGELPDFQDGTKATFHYRTLHSDDEGTVLDDSRARGKPMELIIGKKFKLPVWETIVCTMREGEIAQFLCDIKHVVLYPLVARSLRNIAVGKDPLEGQRHCCGVAQMREHSSLGHADLDALQQNPQPLIFHMEMLKVESPGTYQQDPWAMTDEEKAKAVPLIHQEGNRLYREGHVKEAAAKYYDAIACLKNLQMKEQPGSPEWIQLDQQITPLLLNYCQCKLVVEEYYEVLDHCSSILNKYDDNVKAYFKRGKAHAAVWNAQEAQADFAKVLELDPALAPVVSRELRALEARIRQKDEEDKARFRGIFSH [K103R], “disrupting interaction strength”.
As for MADIIARLREDGIQKRVIQEGRGELPDFQDGTKATFHYRTLHSDDEGTVLDDSRARGKPMELIIGKKFKLPVWETIVCTMREGEIAQFLCDIKHVVLYPLVAKSLRNIAVGKDPLEGQRHCCGVAQMREHSSLGHADLDALQQNPQPLIFHMEMLKVESPGTYQQDPWAMTDEEKAKAVPLIHQEGNRLYREGHVKEAAAKYYDAIACLKNLQMKEQPGSPEWIQLDQQITPLLLNYCQCKLVVEEYYEVLDHCSSILNKYDDNVKAYFKRGKAHAAVWNAQEAQADFAKVLELDPALAPVVSQELRALEARIRQKDEEDKARFRGIFSH [R304Q], the “effect of a mutation on the interaction” value is given as “decreasing interaction strength”.
Then MADIIARLREDGIQKRVIQEGRGELPDFQDGTKATFHYRTLHSDDEGTVLDDSRARGKPMELIIGKKFKLPVWETIVCTMREGEIAQFLCDIKHVVLYPLVAKSLRNIAVGKDPLEGQRHCCGVAQMREHSSLGHADLDALQQNPQPLIFHMEMLKVESPGTYQQDPWAMTDEEKAKAVPLIHQEGNRLYREGHVKEAAAKYYDAIACLKNLQMKEQPGSPEWIQLDQQITPLLLNYCQCKLVVEEYYEVLDHCSSILNKYDDNVKAYFKRGKAHAAVWNAQEAQADFAKVLELDPALVPVVSRELRALEARIRQKDEEDKARFRGIFSH [A299V], with “decreasing interaction strength”.
Then MADIIARLREDGIQKHVIQEGRGELPDFQDGTKATFHYRTLHSDDEGTVLDDSRARGKPMELIIGKKFKLPVWETIVCTMREGEIAQFLCDIKHVVLYPLVAKSLRNIAVGKDPLEGQRHCCGVAQMREHSSLGHADLDALQQNPQPLIFHMEMLKVESPGTYQQDPWAMTDEEKAKAVPLIHQEGNRLYREGHVKEAAAKYYDAIACLKNLQMKEQPGSPEWIQLDQQITPLLLNYCQCKLVVEEYYEVLDHCSSILNKYDDNVKAYFKRGKAHAAVWNAQEAQADFAKVLELDPALAPVVSRELRALEARIRQKDEEDKARFRGIFSH [R16H], with “decreasing interaction strength”; and MADIIARLREDGIQKRVIQEGRGELPDFQDGTKATFHYRTLHSDDEGTMLDDSRARGKPMELIIGKKFKLPVWETIVCTMREGEIAQFLCDIKHVVLYPLVAKSLRNIAVGKDPLEGQRHCCGVAQMREHSSLGHADLDALQQNPQPLIFHMEMLKVESPGTYQQDPWAMTDEEKAKAVPLIHQEGNRLYREGHVKEAAAKYYDAIACLKNLQMKEQPGSPEWIQLDQQITPLLLNYCQCKLVVEEYYEVLDHCSSILNKYDDNVKAYFKRGKAHAAVWNAQEAQADFAKVLELDPALAPVVSRELRALEARIRQKDEEDKARFRGIFSH [V49M], with “with no effect”; and MADIIARLREDGIQKRVIQEGRGELPDFQDGTKATFHYRTLHSDDEGTVLDDSRARGKPMELIIGKKFKLPVWETIVCTMREGEIAQFLCDIKHVVLYPLVAKSLRNIAVGKDPLEGQRHCCGVAQMREHSSLGHADLDALQQNPQPLIFHMEMLKVESPGTYQQDPWAMTDEEKAKAVPLIHQEGNRLYREGHVKEAAAKYYDAIACLKNLQMKEQPGSPEWIQLDQQITPLLLNYCQCKLVVEEYYEVLDHCSSVLNKYDDNVKAYFKRGKAHAAVWNAQEAQADFAKVLELDPALAPVVSRELRALEARIRQKDEEDKARFRGIFSH [I257V], with “decreasing interaction strength”.
Then MADIIARLREDGIQKRVIQEGRGELPDFQDGTKATFHYRTLHSDDEGTVLDDSRARGKPMELIIGKKFKLPVWETIVCTMREGEIAQFLCDIKHVVLYPLVAKSLRNIAVGKDPLEGQRHCCGVAQMREHSSLGHADLDALQQNPQPLIFHMEMLKVESPGTYQQDPWAMTDEEKAKAVPLIHQEGNRLYREGHVKEAAAKYYDAIACLKNLQMKEQPGSPEWIQLDQQITPLLLNYYQCKLVVEEYYEVLDHCSSILNKYDDNVKAYFKRGKAHAAVWNAQEAQADFAKVLELDPALAPVVSRELRALEARIRQKDEEDKARFRGIFSH [C238Y], with “disrupting interaction strength”.

These data come from IntAct's records for PubMed 20506337.
